Biological target: FcRn (Neonatal Fc Receptor)
Assay: SPR (BIAcore T200), FcRn amine-coupled on CM5 chip, antibody 1.96-31.25 nM flowed, pH 6.0 or 7.4 not given, 1:1 fit; Table 4 taken as the FcRn table

Kd: 0.572 nM
Substance: Trastuzumab (antibody)
